Test results published in publication PMC6378141 (Molecular psychiatry, 2018).

Target: T1, D2R(L123W:R132L), short isoform, fused to Rluc8 (human, UniProt P14416-2 1-414, L123W | R132L)
T1 sequence: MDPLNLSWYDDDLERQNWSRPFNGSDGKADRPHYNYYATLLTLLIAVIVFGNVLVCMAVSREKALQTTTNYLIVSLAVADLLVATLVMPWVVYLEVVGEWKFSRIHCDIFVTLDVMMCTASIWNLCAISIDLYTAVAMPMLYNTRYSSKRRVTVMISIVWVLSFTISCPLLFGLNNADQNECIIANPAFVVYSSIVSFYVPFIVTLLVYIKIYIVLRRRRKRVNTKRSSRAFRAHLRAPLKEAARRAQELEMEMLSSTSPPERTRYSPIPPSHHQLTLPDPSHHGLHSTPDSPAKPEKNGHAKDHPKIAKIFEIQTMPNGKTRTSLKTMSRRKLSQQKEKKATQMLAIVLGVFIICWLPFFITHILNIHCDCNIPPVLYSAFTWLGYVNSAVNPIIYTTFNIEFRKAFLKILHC
Assay: FRET or BRET

maximal DA-induced recruitment, % of D2R-WT: 132 % of D2R-WT
B1: bovine arrestin-2 fused to mVenus at its N-terminus (natural protein)
chain: MGDKGTRVFKKASPNGKLTVYLGKRDFVDHIDLVEPVDGVVLVDPEYLKERRVYVTLTCAFRYGREDLDVLGLTFRKDLFVANVQSFPPAPEDKKPLTRLQERLIKKLGEHAYPFTFEIPPNLPCSVTLQPGPEDTGKACGVDYEVKAFCAENLEEKIHKRNSVRLVIRKVQYAPERPGPQPTAETTRQFLMSDKPLHLEASLDKEIYYHGEPISVNVHVTNNTNKTVKKIKISVRQYADICLFNTAQYKCPVAMEEADDTVAPSSTFCKVYTLTPFLANNREKRGLALDGKLKHEDTNLASSTLLREGANREILGIIVSYKVKVKLVVSRGGLLGDLASSDVAVELPFTLMHPKPKEEPPHREVPEHETPVDTNLIELDTNDDDIVFEDFARQRLKGMKDDKEEEEDGTGSPRLNDR
